Target: T1, murine NGF purified from submandibular glands (murine, UniProt P01139 122-239, limits assumed)
T1 construct: Native protein purified from tissue; also called NGF neurotrophin
Assay: ELISA, murine NGF coated at 10 ug/ml, COS supernatants with IgG1, detection by anti-human Cgamma, OD450
Procedure: For immobilization on plastic, 96 well Maxi sorb plates were incubated at 4° C. overnight with a solution containing the respective ligands of the two antibodies (the purified recombinant immunoadhesin TrkA Camel and the murine NGF purified from submandibular glands) at a concentration of 10 μg/ml in 0.1M pH 9.6 sodium carbonate buffer.
After one hour of blocking with PBS containing 3% milk (MPBS) at ambient temperature, concentrated supernatants were incubated with serial dilutions (1:2, 1.20; 1:200) and in parallel also with the supernatant of non transfected COS cells (negative control).

T1 sequence (P01139 122-239 limits assumed): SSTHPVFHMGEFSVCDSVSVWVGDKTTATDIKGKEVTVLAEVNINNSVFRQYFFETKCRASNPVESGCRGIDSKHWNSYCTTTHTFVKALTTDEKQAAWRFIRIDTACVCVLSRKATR

B1: alpha D11 humanized antibody (Hum alpha D11), IgG1 form (antibody, V domains shown)
VH: EVQLVESGGGLVQPGGSLRLSCAASGFSLTNNNVNWVRQAPGKGLEWVGGVWAGGATDYNSALKSRFTISRDNSKNTAYLQMNSLRAEDTAVYYCARDGGYSSSTLYAMDAWGQGTLVTVSS
VL: DIQMTQSPSSLSASVGDRVTITCRASEDIYNALAWYQQKPGKAPKLLIYNTDTLHTGVPSRFSGSGSGTDYTLTISSLQPEDFATYFCQHYFHYPRTFGQGTKVEIK
notes: also called Hum αD11; Hum alpha D11 VH / Hum alpha D11Vk
Does B1 bind?
Result: binds
